Drawing on US20120208770A1, this text covers accumulation of peptide-biotin in SCCVII tumor (positive per field, DAB staining), co-administered with anti-vimentin (positive per field) and accumulation of peptide-biotin in SCCVII tumor (positive per field, DAB staining), without anti-vimentin (positive per field) for one molecule.

The target of the experiment is vimentin of SCCVII cells (cell-surface protein of murine squamous cell carcinoma cells and SCCVII tumors in C3H mice) (mouse (murine SCCVII cells)) (UniProt P20152). Description: cell-based or functional assay.
UniProt P20152, sequence (P20152 2-466): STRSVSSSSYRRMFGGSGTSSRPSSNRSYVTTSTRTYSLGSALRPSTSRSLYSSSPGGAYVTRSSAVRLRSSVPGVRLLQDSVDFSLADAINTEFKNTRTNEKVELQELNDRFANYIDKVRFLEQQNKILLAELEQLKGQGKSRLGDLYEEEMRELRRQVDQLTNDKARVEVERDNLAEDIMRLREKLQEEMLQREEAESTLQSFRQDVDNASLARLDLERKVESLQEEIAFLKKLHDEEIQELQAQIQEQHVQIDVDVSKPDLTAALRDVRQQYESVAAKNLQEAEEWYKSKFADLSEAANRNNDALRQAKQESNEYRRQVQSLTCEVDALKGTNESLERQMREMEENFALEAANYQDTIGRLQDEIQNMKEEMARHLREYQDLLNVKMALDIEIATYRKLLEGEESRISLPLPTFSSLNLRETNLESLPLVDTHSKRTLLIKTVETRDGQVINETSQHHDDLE

As for H-VNTANSTGG-biotin [CHP-biotin (NH2-…-biotin)], the accumulation of peptide-biotin in SCCVII tumor (positive per field, DAB staining), co-administered with anti-vimentin (positive per field) amounted to 1.2 and the accumulation of peptide-biotin in SCCVII tumor (positive per field, DAB staining), without anti-vimentin (positive per field) was found to be 19.6.
